Test results taken from patent US11155586B2, “Cystine knot scaffold platform” (Genentech, Inc., priority 2015, dated 2021).
Positions of bridges follow the written chain, without caps; N, C: chain ends. Non-standard residues stand in square brackets, D forms with d. Residues, ends and D or L forms follow the SMILES beside them. PEG6 = NCCOCCOCCOCCOCCOCCOCCC(=O)O; Pra = C#CC[C@H](N)C(=O)O

Legend:
[1] = target: T1, hVEGF-A (8-109) (Homo sapiens, UniProt P15692); experiment: SPR binding assay (BIACORE 3000, 37° C.); settings: for effect of F8Y mutation on affinity/potency: SPR affinity (Table 37) and cellular IC50 (Table 38), vs variant without F8Y; for kd: Table 37, surface plasmon resonance, VEGF-A
T1 sequence (P15692 34-135 isoform P15692-4): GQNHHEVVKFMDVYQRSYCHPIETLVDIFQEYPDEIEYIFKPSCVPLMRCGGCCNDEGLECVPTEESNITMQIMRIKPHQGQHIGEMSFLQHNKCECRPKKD
Protocol: Depending on the format of the assay either a streptavidin sensor (SA) or a dextran-coated (CM5) sensor was utilized as described below.
For use with the SA sensor, VEGF-A was first biotinylated (no more than 2 biotin/VEGF-A) by incubating the protein with EZ-link NHS-PEG4-Biotin (Pierce) in a 1:1.5 molar ratio respectively, in PBS for 2 hours on ice. Reaction was then quenched by addition of 10 molar excess of Glycine pH 8.0 and the sample was buffer exchanged into PBS using an Amicon 0.5 mL 3000 MWCO ultra-centrifugal filters (EMD Millipore). The biotinylation state of the protein was verified by LC-MS analysis. Biotinylated VEGF-A was then captured on the surface until a resonance unit (RU) signal of about ˜400. For immobilization of VEGF-A on CM5 sensor, the surface was first activated with a mixture of N-ethyl-N′-(3-dimethylaminopropyl)carbodiimide hydrochloride and N-hydroxysuccinimide (EDC/NHS) according to the supplier instructions. VEGF-A was then diluted into coupling buffer (0.1 M Acetate Buffer, pH 5.0) and injected until the signal reached about ˜400 RU followed by a wash with 1 M ethanolamine pH 8.0 to quench remaining activated sites.
Following the capture step, a series of the peptide concentrations were prepared in HBS-EP buffer with matching DMSO concentrations to 0.1% and injected at a flow rate of […]. The resulting sensorgrams were then analyzed using a 1:1 binding model to obtain kinetic data and affinities using Scrubber 2.0 (BioLogic Software).

[2] = target: T2, hVEGF(8-109) (Homo sapiens, UniProt P15692); experiment: Spot phage ELISA; format: binding
T2 construct: hVEGF(8-109) or BSA were coated on 384-well MAXISORP™ immunoplates
T2 sequence (P15692 214-315): T1 sequence (P15692 34-135 isoform P15692-4)
Protocol: After four rounds of binding selection, individual phage clones were picked and inoculated into 450 μl 2YT media containing 50 µg/ml Carbenecillin and M13-KO7 helper phage in 96-well blocks, which were grown at 37° C. overnight. The supernatant was analyzed with spot phage ELISA as follows: hVEGF(8-109) or BSA were coated on 384-well MAXISORP™ immunoplates and phage supernatant diluted (1:3) with PBT buffer was added to the wells. The plates were washed and bound phage was detected with anti-M13-HRP followed by TMB substrate. In these assays, phage binding to BSA alone was tested in parallel to assess background binding. Clones whose binding signals for hVEGF-A (8-109) were more than 3 times higher than to BSA (background) were considered positive. Positive clones were subjected to DNA sequence analysis.

[3] = spot phage ELISA signal, EETI-II-based binders against hVEGF-A, Table 19
[4] = loop 2 variants based on VEGF_CKP9.63 framework, Table 27

Row | Compound | S/N (signal to noise ratio as compared to BSA control) ([2]; Table 27) | ELISA [2, 4] | further results
1 | CC[C@H](C)[C@@H]1NC(=O)[C@H](CC(N)=O)NC(=O)[C@@H](NC(=O)CN)CSSC[C@@H](C(=O)N[C@H](C(=O)N[C@H]2CSSC[C@@H](C(=O)NCC(=O)O)NC(=O)[C@H](CO)NC(=O)[C@H](CCC(N)=O)NC(=O)[C@H](Cc3ccc(O)cc3)NC(=O)[C@H](Cc3ccc(O)cc3)NC(=O)[C@H](CCC(N)=O)NC2=O)C(C)C)NC(=O)CNC(=O)[C@H](C)NC(=O)[C@H](CC(C)C)NC(=O)[C@@H]2CSSC[C@H](NC(=O)CNC(=O)[C@H](Cc3c[nH]c4ccccc34)NC(=O)[C@H](Cc3ccc(O)cc3)NC(=O)[C@@H]3CCCN3C(=O)[C@H](CC(C)C)NC(=O)[C@H](CCSC)NC1=O)C(=O)NCC(=O)N[C@@H](CCC(N)=O)C(=O)N[C@@H](CO)C(=O)N[C@@H](Cc1ccccc1)C(=O)N[C@@H](CCC(=O)O)C(=O)N2 [VEGF_CKP9.54.1.F8Y] (H-GCNIMLPYWGCGQSFECLAGCVCQYYQSCG-OH; disulfide 2-21, 11-17, 23-29 (inferred); N-terminus and C-terminus assumed) |  |  | effect of F8Y mutation on affinity/potency [1]: modest improvement; kd [1]: 0.38
2 | C#CC[C@H](N)C(=O)NCCOCCOCCOCCOCCOCCOCCC(=O)N[C@H]1CSSC[C@@H](C(=O)N[C@H](C(=O)N[C@H]2CSSC[C@@H](C(=O)NCC(=O)O)NC(=O)[C@H](CO)NC(=O)[C@H](CCC(N)=O)NC(=O)[C@H](Cc3ccc(O)cc3)NC(=O)[C@H](Cc3ccc(O)cc3)NC(=O)[C@H](CCC(N)=O)NC2=O)C(C)C)NC(=O)CNC(=O)[C@H](C)NC(=O)[C@H](CC(C)C)NC(=O)[C@@H]2CSSC[C@H](NC(=O)CNC(=O)[C@H](Cc3c[nH]c4ccccc34)NC(=O)[C@H](Cc3ccccc3)NC(=O)[C@@H]3CCCN3C(=O)[C@H](CC(C)C)NC(=O)[C@H](CCSC)NC(=O)[C@H]([C@@H](C)CC)NC(=O)[C@H](CC(N)=O)NC1=O)C(=O)NCC(=O)N[C@@H](CCCNC(=N)N)C(=O)N[C@@H](CC(=O)O)C(=O)N[C@@H](Cc1ccccc1)C(=O)N[C@@H](CCC(=O)O)C(=O)N2 [VEGF_CKP9.54.90-Alkyn] (H-[Pra][PEG6]CNIMLPFWGCGRDFECLAGCVCQYYQSCG-OH; disulfide 3-22, 12-18, 24-30; N-terminus and C-terminus assumed) |  |  | kd [1]: 0.27
3 | CC[C@H](C)[C@@H]1NC(=O)[C@H](CC(N)=O)NC(=O)[C@@H](NC(=O)CN)CSSC[C@@H](C(=O)N[C@H](C(=O)N[C@H]2CSSC[C@@H](C(=O)NCC(=O)O)NC(=O)[C@H](CO)NC(=O)[C@H](CCC(N)=O)NC(=O)[C@H](Cc3ccc(O)cc3)NC(=O)[C@H](Cc3ccc(O)cc3)NC(=O)[C@H](CCC(N)=O)NC2=O)C(C)C)NC(=O)CNC(=O)[C@H](C)NC(=O)[C@H](CC(C)C)NC(=O)[C@@H]2CSSC[C@H](NC(=O)CNC(=O)[C@H](Cc3c[nH]c4ccccc34)NC(=O)[C@H](Cc3ccc(O)cc3)NC(=O)[C@@H]3CCCN3C(=O)[C@H](CC(C)C)NC(=O)[C@H](CCSC)NC1=O)C(=O)NCC(=O)N[C@@H](CCCNC(=N)N)C(=O)N[C@@H](CC(=O)O)C(=O)N[C@@H](Cc1ccccc1)C(=O)N[C@@H](CCC(=O)O)C(=O)N2 [VEGF_CKP9.54.90.F8Y] (H-GCNIMLPYWGCGRDFECLAGCVCQYYQSCG-OH; disulfide 2-21, 11-17, 23-29 (inferred); N-terminus and C-terminus assumed) |  |  | effect of F8Y mutation on affinity/potency [1]: modest improvement; kd [1]: 0.27
4 | CC[C@H](C)[C@@H]1NC(=O)[C@H](CCC(=O)O)NC(=O)[C@H](Cc2c[nH]cn2)NC(=O)[C@@H]2CCCN2C(=O)[C@@H]2CCCN2C(=O)[C@H](Cc2c[nH]c3ccccc23)NC(=O)[C@@H]2CCCN2C(=O)[C@H]([C@@H](C)O)NC(=O)[C@H]([C@@H](C)O)NC(=O)[C@@H](NC(=O)CN)CSSC[C@@H]2NC(=O)CNC(=O)[C@H](C)NC(=O)[C@H](CC(C)C)NC(=O)[C@@H]3CSSC[C@@H](C(=O)NCC(=O)O)NC(=O)[C@H](Cc4ccccc4)NC(=O)CNC(=O)[C@H](CC(N)=O)NC(=O)[C@@H]4CCCN4C(=O)CNC(=O)[C@H](CSSC[C@H](NC(=O)[C@H](CCSC)NC1=O)C(=O)N[C@@H](CCCCN)C(=O)N[C@@H](CCC(N)=O)C(=O)N[C@@H](CC(=O)O)C(=O)N[C@@H](CO)C(=O)N[C@@H](CC(=O)O)C(=O)N3)NC(=O)[C@H](C(C)C)NC2=O [VEGF_CKP12] (H-GCTTPWPPHEIMCKQDSDCLAGCVCGPNGFCG-OH; disulfide 2-23, 13-25, 19-31; N-terminus and C-terminus assumed) |  |  | S/N (signal to noise ratio as compared to BSA control) ([2]; Table 19): 55.2; ELISA [2, 3]: 3.5
5 | CC[C@H](C)[C@@H]1NC(=O)[C@H](Cc2c[nH]c3ccccc23)NC(=O)[C@H](Cc2c[nH]cn2)NC(=O)[C@@H]2CCCN2C(=O)[C@H](CCCCN)NC(=O)[C@H](Cc2c[nH]c3ccccc23)NC(=O)[C@@H]2CCCN2C(=O)[C@H]([C@@H](C)O)NC(=O)[C@H](C(C)C)NC(=O)[C@@H](NC(=O)CN)CSSC[C@@H]2NC(=O)CNC(=O)[C@H](C)NC(=O)[C@H](CC(C)C)NC(=O)[C@@H]3CSSC[C@@H](C(=O)NCC(=O)O)NC(=O)[C@H](Cc4ccccc4)NC(=O)CNC(=O)[C@H](CC(N)=O)NC(=O)[C@@H]4CCCN4C(=O)CNC(=O)[C@H](CSSC[C@H](NC(=O)[C@H](CC(N)=O)NC1=O)C(=O)N[C@@H](CCCCN)C(=O)N[C@@H](CCC(N)=O)C(=O)N[C@@H](CC(=O)O)C(=O)N[C@@H](CO)C(=O)N[C@@H](CC(=O)O)C(=O)N3)NC(=O)[C@H](C(C)C)NC2=O [VEGF_CKP13] (H-GCVTPWKPHWINCKQDSDCLAGCVCGPNGFCG-OH; disulfide 2-23, 13-25, 19-31; N-terminus and C-terminus assumed) |  |  | S/N (signal to noise ratio as compared to BSA control) ([2]; Table 19): 56.3; ELISA [2, 3]: 3.5
6 | GCDVMQPYWGCAGDELCLAGCVCHWYNSCG [VEGF_CKP9.63.30] | 26.0 | 2.0 | 
7 | GCDVMQPYWGCAGDFECLAGCVCHWYNSCG [VEGF_CKP9.63.42] | 23.1 | 1.7 | 
8 | GCDVMQPYWGCDGDFDCLAGCVCHWYNSCG [VEGF_CKP9.63.39] | 18.9 | 1.6 | 
9 | GCDVMQPYWGCDGDYQCLAGCVCHWYNSCG [VEGF_CKP9.63.18] | 17.3 | 2.3 | 
10 | GCDVMQPYWGCDLNYECLAGCVCHWYNSCG [VEGF_CKP9.63.87] | 8.6 | 0.9 | 
11 | GCDVMQPYWGCGADLSCLAGCVCHWYNSCG [VEGF_CKP9.63.62] | 25.4 | 1.8 | 
12 | GCDVMQPYWGCGDDLECLAGCVCHWYNSCG [VEGF_CKP9.63.14] | 21.3 | 1.5 | 
13 | GCDVMQPYWGCGENLACLAGCVCHWYNSCG [VEGF_CKP9.63.54] | 19.9 | 1.4 | 
14 | GCDVMQPYWGCGFDMDCLAGCVCHWYNSCG [VEGF_CKP9.63.65] | 27.1 | 2.0 | 
15 | GCDVMQPYWGCGLDEECLAGCVCHWYNSCG [VEGF_CKP9.63.37] | 8.6 | 0.6 | 
16 | GCDVMQPYWGCGMDIECLAGCVCHWYNSCG [VEGF_CKP9.63.16] | 10.3 | 2.2 | 
17 | GCDVMQPYWGCGNDVSCLAGCVCHWYNSCG [VEGF_CKP9.63.24] | 20.4 | 1.6 | 
18 | GCDVMQPYWGCGNSFECLAGCVCHWYNSCG [VEGF_CKP9.63.47] | 20.7 | 1.7 | 
19 | GCDVMQPYWGCGQDLTCLAGCVCHWYNSCG [VEGF_CKP9.63.50] | 12.7 | 0.9 | 
20 | GCDVMQPYWGCGQDYNCLAGCVCHWYNSCG [VEGF_CKP9.63.56] | 8.4 | 1.8 | 
21 | GCDVMQPYWGCGRDLQCLAGCVCHWYNSCG [VEGF_CKP9.63.2] | 15.0 | 2.0 | 
22 | GCDVMQPYWGCGVDLSCLAGCVCHWYNSCG [VEGF_CKP9.63.3] | 20.7 | 1.7 | 
23 | GCDVMQPYWGCGVDMTCLAGCVCHWYNSCG [VEGF_CKP9.63.15] | 21.4 | 1.5 | 
24 | GCQLMQPFWGCKQDSDCLAGCVCHWYQSCG [VEGF_CKP9.L5.18] |  |  | S/N (signal to noise ratio as compared to BSA control) ([2]; Table 23): 20.4; ELISA ([2]; VEGF_CKP9 Loop5 affinity-matured variants, Table 23): 1.6
